# Reference: patent publication US20080312158A1 (University of California, published 2008)
# B1: Grasshopper fasciclin IV (now called G-Semaphorin I) (other)
# chain: WVNDVSPKMYVQFGEERVQRFLGNESHKDHFKLLEKDHNSLLVGARNIVYNISLRDLTEFTEQRIEWHSSGAHRELCYLKGKSEDDCQNYIRVLAKIDDDRVLICGTNAYKPLCRHYALKDGDYVVEKEYEGRGLCPFDPDHNSTAIYSEGQLYSATVADFSGTDPLIYRGPLRTERSDLKQLNAPNFVNTMEYNDFIFFFFRETAVEYINCGKAIYSRVARVCKHDKGGPHQGGDRWTSFLKSRLNCSVPGDYPFYFNEIQSTSDIIEGNYGGQVEKLIYGVFTTPVNSIGGSAVCAFSMKSILESFDGPFKEQETMNSNWLAVPSLKVPEPRPGQCVNDSRTLPDVSVNFVKSHTLMDEAVPAFFTRPILIRISLQYRFTKIAVDQQVRTPDGKAYDVLFIGTDDGKVIKALNSASFDSSDTVDSVVIEELQVLPPGVPVKNLYVVRMDGDDSKLVVVSDDEILAIKLHRCGSDKITNCRECVSLQDPYCAWDNVELKCTAVGSPDWSAGKRRFIQNISLGEHKACGGRPQTEIVASPVPTQPTTKSSGDPVHSIHQAEFEPEIDNEIVIGVDDSNVIPNTLAEINHAGSKLPSSQEKLPIYTAETLTIAIVTSCLGALVVGFISGFLFSRRCRGEDYTDMPFPDQRHQLNRLTEAGLNADSPYLPPCANNKAAINLVLNVPPKNANGKNANSSAENKPIQKVKKTYI
# modifications: N-linked oligosaccharides (shown by N-Glycanase treatment)
# notes: also called 6F8 antigen; grasshopper Semaphorin I
# Target: the molecule itself
# Experiment: aggregation assay of S2 cells transfected with fasciclin IV (homophilic adhesion)
# Description: To ask whether fasciclin IV can function as a homophilic cell adhesion molecule, the fasciclin IV cDNA with the complete ORF was placed under the control of the inducible metallothionein promoter (Bunch et al. 1988). transfected into S2 cells, and assayed for its ability to promote adhesion in normally non-adhesive S2 cells. Following induction with copper, fasciclin IV was synthesized in these S2 cells as shown by Western blot analysis and cell surface staining of induced S2 cells with the polyclonal antiserum described above.
# A restriction fragment containing the full length fasciclin IV cDNA was cloned into pRmHa-3 (Bunch et al, 1988) and co-transformed into Drosophila S2 cells (Schneider, 1972) with the plasmid pPC4 (Jokerst et al., 1989), which confers a-amanitin resistance. S2 cells were transformed using the Lipofectin Reagent and recommended protocol (BRL) with minor modifications. All other S2 cell manipulations are essentially as described (Snow et al., 1989), including adhesion assays. Fasciclin IV expression in transformed cell lines was induced for adhesion assays and histology by adding CuSO₄ to 0.7 mM and incubating for at least 48 hrs. […] Amount of protein per lane in each sample loaded: fasciclin IV protein, ˜5 ng; S2 cell membranes, […]; grasshopper membranes […]. […]
protein,measurement,value
B1,binding result,no binding
